Results on 167 variants are retold here after the RNAGym collection of RNA variant scans (doi:10.1073/pnas.2313332121).

Sequences and labels used below:
B1: TPR t1 (parent)
chain: GACCAAUCUGCCCUCAGAGCUCGAGAACAUCUUCGGAUGCAGAGGAGGCAGGCUUCGGUGGCGCGAUAGCGCCAACGUCCUCAACCUCCAAUGCAUCCCACCACAUGAUGAUGCCUGAAGAGCCUUGGUUUUUUG

The variants in this series derive from B1. Description: polymerase ribozyme fitness, log enrichment relative to wild type (log ratio); higher = more active; in vitro selection for triplet polymerase activity. The essentials:
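A heterodimeric triplet polymerase ribozyme had each of its subunits mutagenized by PCR into a library, which was transcribed. One round of in vitro selection, done in triplicate, annealed each library with a biotinylated primer, its partner subunit and triplets, then incubated it frozen at −7 °C before gel excision of extended constructs, streptavidin-bead capture and RT-PCR. Fitness is the logarithm of genotype enrichment relative to wild-type enrichment, based on Illumina sequencing of inputs and outputs and inverse-variance-weighted replicate averages. A base-2 logarithm is used, and genotypes were kept only with ≥10 input reads and ≥1 read per output.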
For U32A C88A C89A A119G, the “polymerase ribozyme fitness (log ratio)” value is -4.6. As for A27G A46G C101A, the “polymerase ribozyme fitness (log ratio)” value was -3.22. Take C13G C89G: the “polymerase ribozyme fitness (log ratio)” value is -3.05. For G47C C86G C124A the value was 1; for A74U G120A C124G, 2. With G61U U109C the figure was -2.41. Consider C11U C40G C82U A100U, for which the “polymerase ribozyme fitness (log ratio)” value was -4.42. With C12U C22G C72G C104A G113C A118G U129A the figure was -6.33. For G44C U116C C124A the value was -0.551. As for A5C A41U, the “polymerase ribozyme fitness (log ratio)” value is -2.41. Regarding U55G G71A C101A, the “polymerase ribozyme fitness (log ratio)” value is -1.24. As for U59G A111G, the “polymerase ribozyme fitness (log ratio)” value is 0.731. For G65A G77A the value was -5.24; for C3G A50U C94G, -4.4. C97U A105C: the “polymerase ribozyme fitness (log ratio)” value was -4.58.

C49U A121U: the “polymerase ribozyme fitness (log ratio)” value was 1.09. As for U14G C73U A90G C124A, the “polymerase ribozyme fitness (log ratio)” value was determined as 1.54. As to C104U A111G, the “polymerase ribozyme fitness (log ratio)” value was 0.178. For the variant C8G C22G C76A G77A, the “polymerase ribozyme fitness (log ratio)” value is -5.05.

Turning to G42A A46C G63C U106A, the “polymerase ribozyme fitness (log ratio)” value is -3.82. With C20G G44A the figure was -5.14.

In the case of G63A U78A A119U, the “polymerase ribozyme fitness (log ratio)” value is -1.76.

C4U C11A G44C C82G A121C G127A: the “polymerase ribozyme fitness (log ratio)” value is -0.143. Consider U21C C49A A84U C88G C101G U133A, for which the “polymerase ribozyme fitness (log ratio)” value was -2. With C115A C123G the figure was 1.01; with G63C U87A A100U G127C, -2.77. For the variant C4G A46U G47A, the “polymerase ribozyme fitness (log ratio)” value is -4.4. With C4A G48A G57A C85U C101A the figure was -4.21; with C12U G51A, -2.09. For A5U A103C G110A G113C the value was -5.8; for C20A C28A G36A C72G A90C G110U, -6.43. With G45C G77U the figure was -1.32; with A37U C82U G128C U130C, -2.33. In the case of C80A A95U C114U C124U, the “polymerase ribozyme fitness (log ratio)” value is -7.55. G25U U32G C72A G110A: the “polymerase ribozyme fitness (log ratio)” value is -6.9. Turning to C3U C49A U92A G113A, the “polymerase ribozyme fitness (log ratio)” value is -2.63. For G42C G57U U126G the value was -3.49; for C89A G110C, -5.43; for C40G A75U G127A, -2.31. In the case of U9G C12A G42C G61C C115U, the “polymerase ribozyme fitness (log ratio)” value was -3.63.

On to G39C G48A G71U, for which the “polymerase ribozyme fitness (log ratio)” value was -1.51. As for C11U U87A, the “polymerase ribozyme fitness (log ratio)” value worked out at 0.703. For U14C C49U U130A the value was -2.74.

As for G42A C94G, the “polymerase ribozyme fitness (log ratio)” value is -3.05. For C80U A105C U112G G120C the value was -3.27; for A105C G110A, -5.26; for A6U A29U C101A G120C U133A, -4.06.

For the variant C28U G47U C56U, the “polymerase ribozyme fitness (log ratio)” value is -3.24. With U59C U112A the figure was -0.182. With C53A G60A C72A A91U U92G C97A C124A the figure was -7.15; with C3U C11U U54G, -1.05; with C49G A50U, -1.05. C12G A18C C88U: the “polymerase ribozyme fitness (log ratio)” value was -2.16. With C15A C101U U112A the figure was -1.08.

As for U7C G17A A41G G52U, the “polymerase ribozyme fitness (log ratio)” value is -3.17.

Turning to A6U U7C C102U G127C U131G, the “polymerase ribozyme fitness (log ratio)” value was -2.65.

On to A18U G63C C64U C97G G117A, for which the “polymerase ribozyme fitness (log ratio)” value is -6.33. As for G69A U96G A121C, the “polymerase ribozyme fitness (log ratio)” value was -1.72. For C72U U106A the value was 0.0802; for G39A G63U G69U, -1.34; for G44U C53G G60A A121C, 0.687. With A6C C11U G63C the figure was -1.94. With A50U G60C C123A G127C U132C, the “polymerase ribozyme fitness (log ratio)” value was -0.878. As to U9C G60A C102G G110C G128U, the “polymerase ribozyme fitness (log ratio)” value was -7.66. With A27U C104A the figure was -4.18. On to A37U C49G, for which the “polymerase ribozyme fitness (log ratio)” value is -0.828. With C72U C124U G135A the figure was 2.03. Turning to C56G C85A, the “polymerase ribozyme fitness (log ratio)” value is -2.26. Regarding C53G C70U U78C U106G, the “polymerase ribozyme fitness (log ratio)” value was -3.34.

Regarding C8A G39A G44C C82U C86U G127C, the “polymerase ribozyme fitness (log ratio)” value is -2.71. With U9A G36U the figure was 0.766; with U38C C101U, -1.08; with C62U C94U C98G G110U, -6.52. Turning to A16U A83U U112G C115A, the “polymerase ribozyme fitness (log ratio)” value was -4.6. For C53U G63A U81A the value was -2.54.

Take G60U A91G C123U: the “polymerase ribozyme fitness (log ratio)” value was -0.372. For C13G C124U the value was 0.0672. Take C13U A24G G69U C104U A111U: the “polymerase ribozyme fitness (log ratio)” value is -1.91. As for C8U C28U C56A U87G A119G U130C, the “polymerase ribozyme fitness (log ratio)” value was -1.12. In the case of C11A C31G G47A U92C G120A U131A, the “polymerase ribozyme fitness (log ratio)” value is -5.58. On to C11A A29U U59A C70U G120A, for which the “polymerase ribozyme fitness (log ratio)” value is -1.3. In the case of G63U C64A, the “polymerase ribozyme fitness (log ratio)” value was -6.48.

In the case of C11G G39A G120C G127C, the “polymerase ribozyme fitness (log ratio)” value was 0.971. With A5G U32C C70U G93A the figure was -2.13. For U21A G61C C114A the value was -2.8. Consider C73U G77C G93A C124U U126G, for which the “polymerase ribozyme fitness (log ratio)” value was -1.68.

With U9A G39U G45U, the “polymerase ribozyme fitness (log ratio)” value was -0.618. With A26C C49A C123U the figure was -4.69. For G19U A75G the value was -3.56; for U9G U14C U38G G61U C72U A91U C124U, -3.69. As to U9G G23A, the “polymerase ribozyme fitness (log ratio)” value is -5.2. C3U C22G: the “polymerase ribozyme fitness (log ratio)” value was -3.12. With A91U G110C A121U the figure was -5.81; with C12U A27G G48C, -1.97; with A41G C56G G69C U133G, -5.1. For the variant G51C G71A C82G C85A, the “polymerase ribozyme fitness (log ratio)” value was -4.52.

Take G47C C98U C124G: the “polymerase ribozyme fitness (log ratio)” value was -0.238. With C12A A16C A29U G47A G61A the figure was -3.43.

As to C4U G44U, the “polymerase ribozyme fitness (log ratio)” value is -1.74. With A43C C49G the figure was -3.17. With A5U C15U G48A C70A, the “polymerase ribozyme fitness (log ratio)” value was -3.43. For C11G C80U C101A the value was -0.977; for C11U G44C C101A, -2.7; for C12A C34G G120A, -4.45. With U14G C40A C62U the figure was -3.06; with C97A G120C, -4.1; with C114G G120U, -3.34. With G69C C73A G122A C124G the figure was -0.387; with U9A C62A C88U U92A, -4.26; with A41C G69C C114A, -3.84.

Consider C15A C76A, for which the “polymerase ribozyme fitness (log ratio)” value was -2.53. U7A U92A A103C: the “polymerase ribozyme fitness (log ratio)” value was -5.64. For G45U G47C G52A A83U C124U the value was -3.57; for G57U A68G, -3.27. With C13U G47U G117U the figure was -2.08.

Consider C8G C20U G36C C49A A75G A100U, for which the “polymerase ribozyme fitness (log ratio)” value was -2.01. For G51A A95U the value was -3; for C88U U106A U130A, -0.0999; for U14A G93A C102U, -4.36. For C12G A43U G45C C73A U78A U92G the value was -2.67.

In the case of C8U G63U A90G C115A, the “polymerase ribozyme fitness (log ratio)” value was -0.076. With G44A the figure was -0.794; with C12U G93A, -0.0469; with C62G A118G, -1.44.

For G19U A37C C56U A84C, the “polymerase ribozyme fitness (log ratio)” value was -3.87. Take C104A C114A: the “polymerase ribozyme fitness (log ratio)” value was -4.74. For C12G C62U A105C the value was -2.46; for G47U C72A C76A, -1.85; for C89A G127C U133G, -4.42. Regarding A50U C73U, the “polymerase ribozyme fitness (log ratio)” value is -0.956. For the variant A50U G69A C123G U131G, the “polymerase ribozyme fitness (log ratio)” value is -4.01.

Consider C13A A26C C56A G60U C88U G113U C115U, for which the “polymerase ribozyme fitness (log ratio)” value was -6.95.

Take C8G A50U C53G C99U C104A C115A A121C: the “polymerase ribozyme fitness (log ratio)” value was -7. With C72G C101A C114U, the “polymerase ribozyme fitness (log ratio)” value is -3.4. For G36U U78C C89G C101A the value was -4.13; for A2C C3U C56G G69U, -4.15; for C62G G113A C114G A121U, -4.27. For C40G C123U the value was 0.0444.

On to C34U G51U G61A C114U, for which the “polymerase ribozyme fitness (log ratio)” value is -6.98.

In the case of A18C C56G C124A, the “polymerase ribozyme fitness (log ratio)” value was -0.202. For G52A U54A G69U G77U C80G A83C A119U the value was -3.11; for C56A C101U U106C A111C, -0.932. As for A5U G42U A46G C72U U78G, the “polymerase ribozyme fitness (log ratio)” value is -1.17. For C11U A75G the value was -0.146; for C11A C53U C76U C80G G117C, -7.25.

For C79U A84G, the “polymerase ribozyme fitness (log ratio)” value is -0.834. With G51C G60A U112G G117C the figure was -7.03; with C40U A46G C64U A84C, -1.65. With G110A C124A the figure was -0.401; with C15U C56A C62A G110C, -6.04. For A27U G63C the value was -3.59. With A2C C3G A90G, the “polymerase ribozyme fitness (log ratio)” value is -3.04.

For the variant C34U C56U C115A, the “polymerase ribozyme fitness (log ratio)” value is -4.02. As for U9G U116A, the “polymerase ribozyme fitness (log ratio)” value is -0.815.

Turning to C11U G35A A37U C124A U132A, the “polymerase ribozyme fitness (log ratio)” value was -4.07. Regarding A46U A74U, the “polymerase ribozyme fitness (log ratio)” value is -0.906. Take G44U C72G C85U U96A A121G C124G: the “polymerase ribozyme fitness (log ratio)” value was -3.64. With G63U U81G A121C the figure was -3.58. With U9G A29G G42U the figure was -2.93. For G60C U133A the value was -0.621. C49U C53A C101A G120A: the “polymerase ribozyme fitness (log ratio)” value was -1.13. With G61C G117C the figure was -3.51; with U59C C62U C85A C115U, -2.93.

Turning to U134C, the “polymerase ribozyme fitness (log ratio)” value is -0.304. For C8A C22U U129G, the “polymerase ribozyme fitness (log ratio)” value was -4.85.

Consider C12A G117C, for which the “polymerase ribozyme fitness (log ratio)” value is -3. For C8G C15U, the “polymerase ribozyme fitness (log ratio)” value is -1.19.
